According to the Human Domainome abundance scans (Beltran et al. 2025):
± gives the uncertainty stated by the source.

B1: PMS1 protein homolog 1, residues 572 to 637; numbered along this chain, P54277 (parent)
chain: KKPMSASALFVQDHRPQFLIENPKTSLEDATLQIEELWKTLSEEEKLKYEEKATKDLERYNSQMKR

Variants of: B1
Assay: abundance fitness (aPCA) (normalised: wild type 0, dead -1); higher = more abundant; growth selection in yeast, the domain comes from the species named
Settings: Homo sapiens

KKPMSASALFVQDHRPQFLIENPKTSLEDATLQIEELWKTLSEEEKLKYEEKPTKDLERYNSQMKR [A53P] and KKPMSASALFVQDHRPQFLIENPKTSLEDATLQIEELWKTLSEEEKLKYEEKQTKDLERYNSQMKR [A53Q] are within error of each other in abundance fitness: -0.377 ± 0.069 for the first, -0.48 ± 0.13 for the second.

KKPMSASALFVQDHRPQFLIENPKTSLEDATLQIEELWKTLSEEEKLKYEEKYTKDLERYNSQMKR [A53Y] and KKPMSASALFVQDHRPQFLIENPKTSLEDATLQIEELWKTLSEEEKLKYEEKCTKDLERYNSQMKR [A53C] are within error of each other in abundance fitness: -0.22 ± 0.089 for the first, -0.211 ± 0.091 for the second.

KKPMSASALFVQDHRPQFLIENPKTSLEDATLQIEELWKTLSEEEKLKYEEKGTKDLERYNSQMKR [A53G] and KKPMSASALFVQDHRPQFLIENPKTSLEDATLQIEELWKTLSEEEKLKYEEKNTKDLERYNSQMKR [A53N] are within error of each other in abundance fitness: -0.52 ± 0.057 for the first, -0.363 ± 0.12 for the second.

KKPMSASALFVQDHRPQFLIENPKTSLEDATLQIEELWKTLSEEEKLKYEEKETKDLERYNSQMKR [A53E] and KKPMSASALFVQDHRPQFLIENPKTSLEDATLQIEELWKTLSEEEKLKYEEKACKDLERYNSQMKR [T54C] are within error of each other in abundance fitness: -0.227 ± 0.08 for the first, -0.164 ± 0.088 for the second.

Going from KKPMSASALFVQDHRPQFLIENPKTSLEDATLQIEELWKTLSEEEKLKYEEKAVKDLERYNSQMKR [T54V] to KKPMSASALFVQDHRPQFLIENPKTSLEDATLQIEELWKTLSEEEKLKYEEKAEKDLERYNSQMKR [T54E], the abundance fitness rises from -0.12 ± 0.068 to 0.096 ± 0.095.

KKPMSASALFVQDHRPQFLIENPKTSLEDATLQIEELWKTLSEEEKLKYEEKAYKDLERYNSQMKR [T54Y] and KKPMSASALFVQDHRPQFLIENPKTSLEDATLQIEELWKTLSEEEKLKYEEKAIKDLERYNSQMKR [T54I] are within error of each other in abundance fitness: -0.331 ± 0.12 for the first, -0.186 ± 0.087 for the second.

KKPMSASALFVQDHRPQFLIENPKTSLEDATLQIEELWKTLSEEEKLKYEEKAGKDLERYNSQMKR [T54G] and KKPMSASALFVQDHRPQFLIENPKTSLEDATLQIEELWKTLSEEEKLKYEEKADKDLERYNSQMKR [T54D] are within error of each other in abundance fitness: 0.07 ± 0.071 for the first, -0.016 ± 0.16 for the second.

Compared with KKPMSASALFVQDHRPQFLIENPKTSLEDATLQIEELWKTLSEEEKLKYEEKALKDLERYNSQMKR [T54L], KKPMSASALFVQDHRPQFLIENPKTSLEDATLQIEELWKTLSEEEKLKYEEKAWKDLERYNSQMKR [T54W] is lower in abundance fitness: -0.009 ± 0.052 for the first, -0.346 ± 0.074 for the second.

Going from KKPMSASALFVQDHRPQFLIENPKTSLEDATLQIEELWKTLSEEEKLKYEEKAAKDLERYNSQMKR [T54A] to KKPMSASALFVQDHRPQFLIENPKTSLEDATLQIEELWKTLSEEEKLKYEEKAPKDLERYNSQMKR [T54P], the abundance fitness falls from 0.035 ± 0.071 to -0.338 ± 0.079.

KKPMSASALFVQDHRPQFLIENPKTSLEDATLQIEELWKTLSEEEKLKYEEKANKDLERYNSQMKR [T54N] and KKPMSASALFVQDHRPQFLIENPKTSLEDATLQIEELWKTLSEEEKLKYEEKAKKDLERYNSQMKR [T54K] are within error of each other in abundance fitness: -0.045 ± 0.088 for the first, 0.046 ± 0.096 for the second.

Compared with KKPMSASALFVQDHRPQFLIENPKTSLEDATLQIEELWKTLSEEEKLKYEEKASKDLERYNSQMKR [T54S], KKPMSASALFVQDHRPQFLIENPKTSLEDATLQIEELWKTLSEEEKLKYEEGATKDLERYNSQMKR [K52G] is lower in abundance fitness: 0.015 ± 0.076 for the first, -0.213 ± 0.068 for the second.

KKPMSASALFVQDHRPQFLIENPKTSLEDATLQIEELWKTLSEEEKLKYEEHATKDLERYNSQMKR [K52H] and KKPMSASALFVQDHRPQFLIENPKTSLEDATLQIEELWKTLSEEEKLKYEETATKDLERYNSQMKR [K52T] are within error of each other in abundance fitness: -0.272 ± 0.12 for the first, -0.288 ± 0.087 for the second.

First: KKPMSASALFVQDHRPQFLIENPKTSLEDATLQIEELWKTLSEEEKLKYEESATKDLERYNSQMKR [K52S]
Second: KKPMSASALFVQDHRPQFLIENPKTSLEDATLQIEELWKTLSEEEKLKYEERATKDLERYNSQMKR [K52R]
The abundance fitness of the first is lower: -0.184 ± 0.06 for the first, -0.041 ± 0.066 for the second.

First: KKPMSASALFVQDHRPQFLIENPKTSLEDATLQIEELWKTLSEEEKLKYEELATKDLERYNSQMKR [K52L]
Second: KKPMSASALFVQDHRPQFLIENPKTSLEDATLQIEELWKTLSEEEKLKYEEFATKDLERYNSQMKR [K52F]
The abundance fitness of the first is higher: -0.178 ± 0.053 for the first, -0.507 ± 0.092 for the second.

Going from KKPMSASALFVQDHRPQFLIENPKTSLEDATLQIEELWKTLSEEEKLKYEEYATKDLERYNSQMKR [K52Y] to KKPMSASALFVQDHRPQFLIENPKTSLEDATLQIEELWKTLSEEEKLKYEEEATKDLERYNSQMKR [K52E], the abundance fitness rises from -0.302 ± 0.091 to -0.059 ± 0.11.

Compared with KKPMSASALFVQDHRPQFLIENPKTSLEDATLQIEELWKTLSEEEKLKYEEIATKDLERYNSQMKR [K52I], KKPMSASALFVQDHRPQFLIENPKTSLEDATLQIEELWKTLSEEEKLKYEEWATKDLERYNSQMKR [K52W] is higher in abundance fitness: -0.664 ± 0.18 for the first, -0.33 ± 0.063 for the second.

KKPMSASALFVQDHRPQFLIENPKTSLEDATLQIEELWKTLSEEEKLKYEENATKDLERYNSQMKR [K52N] and KKPMSASALFVQDHRPQFLIENPKTSLEDATLQIEELWKTLSEEEKLKYEEVATKDLERYNSQMKR [K52V] are within error of each other in abundance fitness: -0.285 ± 0.11 for the first, -0.229 ± 0.066 for the second.

Going from KKPMSASALFVQDHRPQFLIENPKTSLEDATLQIEELWKTLSEEEKLKYEEPATKDLERYNSQMKR [K52P] to KKPMSASALFVQDHRPQFLIENPKTSLEDATLQIEELWKTLSEEEKLKYEEQATKDLERYNSQMKR [K52Q], the abundance fitness rises from -0.38 ± 0.1 to -0.009 ± 0.092.

KKPMSASALFVQDHRPQFLIENPKTSLEDATLQIEELWKTLSEEEKLKYEEMATKDLERYNSQMKR [K52M] and KKPMSASALFVQDHRPQFLIENPKTSLEDATLQIEELWKTLSEEEKLKYEEKATKDDERYNSQMKR [L57D] are within error of each other in abundance fitness: 0.102 ± 0.099 for the first, 0.024 ± 0.079 for the second.

KKPMSASALFVQDHRPQFLIENPKTSLEDATLQIEELWKTLSEEEKLKYEEKATKDCERYNSQMKR [L57C] and KKPMSASALFVQDHRPQFLIENPKTSLEDATLQIEELWKTLSEEEKLKYEEKATKDEERYNSQMKR [L57E] are within error of each other in abundance fitness: -0.084 ± 0.094 for the first, -0.066 ± 0.067 for the second.

For KKPMSASALFVQDHRPQFLIENPKTSLEDATLQIEELWKTLSEEEKLKYEEKATKDFERYNSQMKR [L57F], the abundance fitness was -0.17 ± 0.12.
